Paper PMC5580885

Target: Tim50^IMS (purified, recombinant) (S. cerevisiae) (UniProt Q02776)
Experiment: cross-linking

Sequence of UniProt Q02776 (Q02776 133-476): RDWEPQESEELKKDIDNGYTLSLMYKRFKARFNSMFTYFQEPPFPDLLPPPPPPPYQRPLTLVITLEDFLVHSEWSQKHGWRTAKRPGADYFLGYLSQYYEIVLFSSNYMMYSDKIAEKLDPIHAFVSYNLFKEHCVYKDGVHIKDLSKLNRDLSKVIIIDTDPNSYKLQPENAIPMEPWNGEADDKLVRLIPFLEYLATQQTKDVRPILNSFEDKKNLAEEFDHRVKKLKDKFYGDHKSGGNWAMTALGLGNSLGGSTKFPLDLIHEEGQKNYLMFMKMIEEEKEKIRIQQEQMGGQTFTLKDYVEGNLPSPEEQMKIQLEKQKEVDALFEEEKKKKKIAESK

[35S]Tim23(F114C) (from UniProt P32897 1-222) (natural protein)
fold cross-linking with TOCL over without TOCL: 6 fold
